According to paper doi:10.1101/2025.03.28.645892, “Plant-specific adaptations of the CDC48 unfoldase” (bioRxiv, 2025):
Blank lines part the entries; values can stand above or below the binder they belong to.

Columns and labels:
[1] = molecular target: T1, Arabidopsis thaliana CDC48A (Arabidopsis thaliana, UniProt P54609 1-809); experiment: ITC; AtCDC48A in the cell (30 µM; 10 µM for AtNPL4B UBXL), partner 200 µM in the syringe; 2 mM AMPPNP; 50 mM Bis-Tris pH 6.5, 100 mM NaCl, 1 mM TCEP, 2 mM MgCl2; 25°C; conditions: both partners purified
T1 construct: Cell division cycle protein 48 A (AtCDC48A), Arabidopsis thaliana, locus AT3g09840; recombinant full-length protein; Homo-hexamer; ADP-saturated or nucleotide-free in some experiments (told by the assay); also called AtCDC48A; AtCDC48; not shown: GST, N-terminal, cleaved

[2] = molecular target: T2, Arabidopsis thaliana NPL4 (Arabidopsis thaliana, UniProt O82264 1-413, Alexa-488 dye label in the MST experiments only); experiment: MST; Alexa-488-labelled AtNPL4 (50 nM dye solution mixed 1:1), AtUFD1A or AtUFD1B titrated in 16 dilutions; pH 7.5 (50 mM Tris-HCl, 100 mM NaCl, 1 mM TCEP), Tween-20; conditions: both partners purified
T2 construct: Nuclear protein localisation protein 4 (AtNPL4), Arabidopsis thaliana, locus AT2g47970; cDNA cloned into pGEX6P-1; also called AtNPL4; wild-type AtNPL4; not shown: GST, N-terminal, cleaved
T2 sequence: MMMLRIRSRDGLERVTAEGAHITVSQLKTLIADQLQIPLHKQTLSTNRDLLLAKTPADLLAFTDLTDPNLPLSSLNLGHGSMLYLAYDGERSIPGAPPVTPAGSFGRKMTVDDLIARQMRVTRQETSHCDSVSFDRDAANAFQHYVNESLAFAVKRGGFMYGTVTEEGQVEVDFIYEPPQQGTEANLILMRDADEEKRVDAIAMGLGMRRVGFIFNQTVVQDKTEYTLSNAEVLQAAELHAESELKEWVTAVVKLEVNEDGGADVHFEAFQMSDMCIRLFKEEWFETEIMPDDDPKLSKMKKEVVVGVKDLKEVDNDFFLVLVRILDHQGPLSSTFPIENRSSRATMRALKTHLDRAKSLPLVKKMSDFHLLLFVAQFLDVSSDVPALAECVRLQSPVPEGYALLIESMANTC

T1 sequence (P54609 whole entry): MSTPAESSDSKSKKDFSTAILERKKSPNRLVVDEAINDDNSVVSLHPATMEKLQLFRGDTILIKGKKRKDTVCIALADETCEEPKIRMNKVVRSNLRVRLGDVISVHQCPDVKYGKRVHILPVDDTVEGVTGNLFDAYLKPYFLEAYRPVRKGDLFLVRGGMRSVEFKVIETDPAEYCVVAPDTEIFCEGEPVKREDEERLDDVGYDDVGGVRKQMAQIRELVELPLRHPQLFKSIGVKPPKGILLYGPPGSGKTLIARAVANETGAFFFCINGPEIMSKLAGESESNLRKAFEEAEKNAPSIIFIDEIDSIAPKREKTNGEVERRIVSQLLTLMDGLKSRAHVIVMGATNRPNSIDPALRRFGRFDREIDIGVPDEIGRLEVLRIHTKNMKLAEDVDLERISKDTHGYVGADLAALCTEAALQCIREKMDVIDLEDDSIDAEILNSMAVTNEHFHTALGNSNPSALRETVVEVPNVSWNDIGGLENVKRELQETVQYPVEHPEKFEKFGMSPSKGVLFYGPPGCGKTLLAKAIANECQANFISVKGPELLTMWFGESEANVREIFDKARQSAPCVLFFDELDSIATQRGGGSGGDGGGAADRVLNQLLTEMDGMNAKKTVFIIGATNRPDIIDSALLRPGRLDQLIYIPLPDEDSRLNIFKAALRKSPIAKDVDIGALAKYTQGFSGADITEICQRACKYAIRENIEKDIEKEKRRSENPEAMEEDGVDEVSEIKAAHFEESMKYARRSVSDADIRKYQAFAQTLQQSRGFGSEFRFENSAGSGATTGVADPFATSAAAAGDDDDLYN

stoichiometry N [1]: 6 AtNPL4B_(UBXL) per hexamer
B1: AtNPL4B UBXL domain (domain or fragment, Arabidopsis thaliana, UniProt Q9LYC2 1-89, looked up)
chain: MTMLRVRSRDGLERVSVDGPHITVSQLKTLIQDQLQIPIHNQTLSTNRNLLLAKSPSDFLAFTDMADPNLRISSLNLAHGSMVYLAYEG
notes: UBX-like (UBXL) domain of AtNPL4B, Arabidopsis thaliana, locus AT3g63000, residues 1-89; also called the isolated UBXL domain; not shown: GST, N-terminal, cleaved

Kd [2]: > 200 µM
B2: Arabidopsis thaliana UFD1B (natural protein, UniProt Q9SJV0 1-340, looked up)
chain: MVLRFCCHLLTYSVSLLPPITMFFDGYHYHGTTFEQSYRCYPASFIDKPQLESGDKIIMPPSALDRLASLHIDYPMLFELRNAGIERVTHCGVLEFIAEEGMIYMPYWMMQNLLLQEGDIVRVRNVTLPKGTYVKLQPHTTDFLDISNPKAILETALRNYSCLTSGDSIMVPYNNKKYFIDIVETKPANAISIIETDCEVDFAPPLDYKEPERPTAPSAAKGPAKAEEVVDEPEPKFNPFTGSGRRLDGRPLAYEPAPASSSKGKQPVVANGNGQSSVASSSEKATRAQGKLVFGANGNRAPKEAAPKVGAAKETKKEEQEKKDEPKFQAFSGKKYSLRG
notes: Ubiquitin fusion degradation protein 1 paralogue B (AtUFD1B), Arabidopsis thaliana, locus AT2g21270; cDNA cloned into pGEX6P-1; also called AtUFD1B; AtUFD1; not shown: GST, N-terminal, cleaved

binding result [1]: binds
B3: AtNPL4B F105A (natural protein, Arabidopsis thaliana, UniProt Q9LYC2 1-413, looked up)
chain: MTMLRVRSRDGLERVSVDGPHITVSQLKTLIQDQLQIPIHNQTLSTNRNLLLAKSPSDFLAFTDMADPNLRISSLNLAHGSMVYLAYEGERTIRGGPAVTPAGSAGRKMTVEDLIARQMRVGRQEKAHCDSVSFDRDCANAFQHFVNESLAFAVKRGGFMYGNVSEDGQVEVNFIYEPPQQGMEDNLILMRDSEEEKRVDAIALGLGMRRVGFIFNQTVTQDKKEYTLSNVEVLLAAQLHAESELKEWVTAVVKLEINEDGGADVHFEPFQMSDMCVRLFKEGWFETEIGPEDDPKLSKLKKEVVVGVKDVKEVDNDFFLVLVKILDHQGPLSCTFPIENRNTQTTMRALKTHMERARSLPFVKRISDFHLLLFVAQFLDVSSDVPALAECVRLQSHVPEGYELLIDSMANTS
notes: AtNPL4B, second NPL4 variant of Arabidopsis thaliana, locus AT3g63000 (84% identical to AtNPL4); ordered from Twist Biosciences in pGEX6P-1; The wild-type AtNPL4B was not measured; also called the F105 mutant; not shown: GST, N-terminal, cleaved
